From IntAct's records for PubMed 27927196

B1: Lipopolysaccharide-induced tumor necrosis factor-alpha factor (Homo sapiens), Q99732 (parent)
chain: MSVPGPYQAATGPSSAPSAPPSYEETVAVNSYYPTPPAPMPGPTTGLVTGPDGKGMNPPSYYTQPAPIPNNNPITVQTVYVQHPITFLDRPIQMCCPSCNKMIVSQLSYNAGALTWLSCGSLCLLGCIAGCCFIPFCVDALQDVDHYCPNCRALLGTYKRL

Variants of: B1
Settings: with nedd4_human NEDD4, P46934
nedd4_human NEDD4, P46934, sequence (P46934 whole entry): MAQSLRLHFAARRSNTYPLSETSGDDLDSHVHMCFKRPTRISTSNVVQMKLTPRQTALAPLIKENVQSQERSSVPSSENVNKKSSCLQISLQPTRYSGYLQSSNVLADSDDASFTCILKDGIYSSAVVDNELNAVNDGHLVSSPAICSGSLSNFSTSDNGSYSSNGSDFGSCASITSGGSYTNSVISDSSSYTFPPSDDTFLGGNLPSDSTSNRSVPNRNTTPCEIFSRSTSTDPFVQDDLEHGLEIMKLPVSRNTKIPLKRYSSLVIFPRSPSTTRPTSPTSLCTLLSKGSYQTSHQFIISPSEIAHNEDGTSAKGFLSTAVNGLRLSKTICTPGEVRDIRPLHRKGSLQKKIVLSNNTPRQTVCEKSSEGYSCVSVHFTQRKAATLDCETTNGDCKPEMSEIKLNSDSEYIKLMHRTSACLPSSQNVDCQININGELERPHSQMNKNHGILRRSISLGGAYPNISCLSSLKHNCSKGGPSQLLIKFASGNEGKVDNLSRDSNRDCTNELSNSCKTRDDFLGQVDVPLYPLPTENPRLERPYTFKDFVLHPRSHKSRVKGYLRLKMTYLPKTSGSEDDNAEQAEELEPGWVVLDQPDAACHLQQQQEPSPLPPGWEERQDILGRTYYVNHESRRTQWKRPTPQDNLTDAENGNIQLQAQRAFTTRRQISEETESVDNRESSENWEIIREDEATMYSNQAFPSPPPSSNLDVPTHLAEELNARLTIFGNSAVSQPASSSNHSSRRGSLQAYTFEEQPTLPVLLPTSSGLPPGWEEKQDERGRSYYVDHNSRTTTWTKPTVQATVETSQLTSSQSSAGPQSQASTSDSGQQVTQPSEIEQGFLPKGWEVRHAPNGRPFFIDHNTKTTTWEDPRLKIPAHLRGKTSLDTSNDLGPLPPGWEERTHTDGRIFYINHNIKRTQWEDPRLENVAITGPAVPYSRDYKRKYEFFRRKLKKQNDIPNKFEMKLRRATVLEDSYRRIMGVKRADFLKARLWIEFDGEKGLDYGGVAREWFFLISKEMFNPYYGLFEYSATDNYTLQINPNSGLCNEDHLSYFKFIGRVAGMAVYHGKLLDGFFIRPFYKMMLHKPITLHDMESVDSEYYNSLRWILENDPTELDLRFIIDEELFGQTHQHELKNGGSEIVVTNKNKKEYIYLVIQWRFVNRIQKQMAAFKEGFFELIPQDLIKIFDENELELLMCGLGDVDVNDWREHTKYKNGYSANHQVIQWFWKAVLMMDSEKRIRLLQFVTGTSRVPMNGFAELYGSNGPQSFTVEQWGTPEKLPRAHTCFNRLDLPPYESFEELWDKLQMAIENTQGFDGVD

effect of a mutation on the interaction | Variant
disrupting interaction strength | Y23A
with no effect | Y61A
disrupting interaction strength | Y23A;Y61A
